# Positions of bridges follow the written chain, without caps; N, C: chain ends. Residues, ends and D or L forms follow the SMILES beside them. *: point of attachment. X1 = O=C(O)c1ccc(-c2c3nc(c(-c4ccc(C(=O)O)cc4)c4ccc([nH]4)c(-c4ccc(C(=O)*)cc4)c4nc(c(-c5ccc(C(=O)O)cc5)c5ccc2[nH]5)C=C4)C=C3)cc1; X2 = O=C(O)C/C(=C/C(=O)*)C(=O)O
# Assays:
# EJ cells [1] = test: Intracellular ROS detection (DCFH-DA); format: cell-based; conditions: pH 6.5, 40 μM, 8 h
# Method: Initially, EJ cells (5 × 10^5) were cultured in confocal dish with a CO2 incubator overnight at 37 °C. […] Afterwards, EJ cells were washed with PBS for 3 times and replaced with culture mediums.
# [2] = Hydrolysis of the peptide-porphyrin conjugates at pH 7.4 and 6.5 (dialysis, HPLC); format: physicochemical; conditions: for Hydrolysis of CAA (%): 37 °C, dialysis MWCO 1000 Da, released CAA by HPLC, mean of n = 3; for Hydrolysis of SA (%): mean
# Method: In vitro hydrolysis analysis of the peptide-porphyrin conjugates was studied in pH values of 7.4 and 6.5 solutions. 20 mg of peptide-porphyrin conjugate was dissolved in 2 mL pH 7.4 buffer solution, which was then transferred into a dialysis bag (MWCO: 1000 Da) and immersed in 25 mL of different pH buffer solutions at 37 °C with continuous shaking respectively. At fixed time intervals (20 min, 40 min, 1 h, 2 h and 4 h), […] chromatography (HPLC, WATERS Alliance HPLC e2489), and an equal volume of fresh buffer solution was replaced to the system. In order to determine the CAA concentration according to the peak area of the CAA, a standard curve of the CAA was plotted, with the peak area as a function of the concentration. […]
# EJ cells [3] = test: Intracellular LPO content (MDA kit); format: cell-based
# Method: (§1) Initially, EJ cells (5 × 10^5) were cultured in 6-well plate with a CO2 incubator overnight at 37 °C. […] Next, EJ cells were collected and washed with PBS for 3 times. Afterwards, the cell lysates were collected by centrifugation at 8000 g for 10 min at 4 °C after lysed by freeze-thaw treatment. Finally, the LPO contents were measured by thiobarbituric acid (TBA) reaction with a Malondialdehyde (MDA) Assay Kit based on the manufacturer’s instructions.
# [4] = Critical aggregation concentration (pyrene probe, I338/I335); format: physicochemical; conditions: for I338/I335 (pyrene): pyrene 6 μM, emission 393 nm; for critical aggregation concentration (CAC): pyrene probe, I338/I335, PBS 0.01 M, pH 7.4
# Method: The CACs were determined using pyrene as a fluorescent probe. In brief, 50 μL of pyrene solution in acetone (480 μM) was added to a 5 mL centrifuge tube, followed by adding a series of peptide-porphyrin conjugate solutions with different concentrations, and the tube was kept overnight to evaporate the acetone completely, the concentration of pyrene being fixed at 6 μM at last. The excitation spectra of the solutions were recorded with the emission wavelength fixing at 393 nm, and the intensity ratio (I338/I335) was calculated as a function of the concentration. The CAC was determined based on the intersection point at low concentration on the plot.
# EJ tumor tissues = test: Tumor ROS content detection; format: in vivo, BALB/c nude mice; conditions: 8 mg/kg i.v., versus PBS, Gi-F and Gi-F-SA
# Method: EJ tumor tissues were collected under euthanasia at the end of treatment and washed with PBS for 3 times. Next, DCFH-DA fluorescence staining was carried out by Wuhan Servicebio Technology Co., Ltd.
# EJ cells [5] = test: Cellular imaging (uptake) by CLSM; format: cell-based; conditions: Cy7-labeled, 40 μM, 2 h
# Method: Initially, EJ cells (5 × 10^5) were cultured in confocal dish with a CO2 incubator overnight at 37 °C. Subsequently, the EJ cells were incubated with Cy labeled Gi-F-CAA (40 μM, pH = 7.4) and Cy labeled Gi-F-CAA (40 μM, pH = 6.5) for 2 h followed by washing with PBS for three times.
# EJ cells [6] = test: Intracellular GSH content detection; format: cell-based
# Method: as §1, with “GSH” for “LPO”, “measured” for “measured by thiobarbituric acid (TBA) reaction”, “GSH” for “Malondialdehyde (MDA)”
# [7] = •OH by TPA fluorescence assay, turnover frequency; conditions: TPA fluorescence 425 nm, H2O2 concentration-dependent
# Method: The generation of •OH was determined by the Magnettech MS-5000 EPR spectrometer. Typically, peptide-porphyrin conjugates (40 μM) were exposed to H2O2 (200 μM) for 3 min in the presence of 5,5-dimethyl-1-pyrroline-N-oxide (DMPO, 100 μM). The •OH signal was immediately detected by the EPR spectrometer. The amount of •OH was measured by using TPA as an indicator that following the increasement of HTPA fluorescence in the conjugate solution. Briefly, TPA (50 μL, 2 mM) and fresh conjugate solution (50 mM) were mixed with 1 ml H2O, and then the solution was exposed to various concentration of H2O2. The fluorescence at 425 nm (λex = 310 nm) was recorded at 5 min to determine the concentration of •OH, which can further be applied for calculating the TOF of peptide-porphyrin conjugates.
# Supplementary Fig. 21. Terephthalic acid (TPA) reacts with hydroxyl radical in solution to produce stable and strong fluorescent substances (Ortho -hydroxyterephthalic acid, HTPA). The reaction is used to quantitatively analyze •OH produced by Gi -F under the H2O2 treatment (a). Plot showing the linear relationship of relative fluorescence intensity with H 2O2 concentration (b). The fluorescence of different concentration of HTPA at 425 […]
# (1 picture or pasted object on this page, not shown here)
molecule,measurement,setting,value
CC(C)C[C@H](NC(=O)c1ccc(-c2c3nc(c(-c4ccc(C(=O)O)cc4)c4ccc([nH]4)c(-c4ccc(C(=O)O)cc4)c4nc(c(-c5ccc(C(=O)O)cc5)c5ccc2[nH]5)C=C4)C=C3)cc1)C(=O)N[C@@H](CCCCNC(=O)/C=C(/CC(=O)O)C(=O)O)C(=O)N[C@@H](CC(C)C)C(=O)N[C@@H](CCCCN)C(=O)N[C@@H](CC(C)C)C(=O)N[C@@H](CCCCNC(=O)/C=C(/CC(=O)O)C(=O)O)C(=O)NCC(=O)N[C@@H](C)C(=O)N[C@H]1CSSC[C@@H](C(=O)N2CCC[C@H]2C(=O)N[C@H](C(=O)O)C(C)C)NC(=O)[C@@H]2CCCN2C(=O)[C@H](Cc2ccc(O)cc2)NC(=O)[C@H](CC(C)C)NC(=O)[C@@H]2CCCN2C(=O)[C@H](CC(C)C)NC(=O)[C@H](Cc2c[nH]c3ccccc23)NC(=O)[C@H](CC(N)=O)NC1=O [Gi-F-CAA] (X1-LK(X2)LKLK(X2)GACNWLPLYPCPV-OH; disulfide 9-17; C-terminus assumed),intracellular ROS (DCFH-DA),EJ cells [1],Apparent green fluorescence
same,Hydrolysis of CAA (%),"[2]; pH 6.5 buffer, 0 min",0%
same,Hydrolysis of CAA (%),"[2]; pH 6.5 buffer, 20 min",17.6%
same,Hydrolysis of CAA (%),"[2]; pH 6.5 buffer, 40 min",43.7%
same,Hydrolysis of CAA (%),"[2]; pH 6.5 buffer, 60 min",53.6%
same,Hydrolysis of CAA (%),"[2]; pH 6.5 buffer, 120 min",56.9%
same,Hydrolysis of CAA (%),"[2]; pH 6.5 buffer, 240 min",57.5%
same,Hydrolysis of CAA (%),"[2]; pH 7.4 buffer, 0 min",0%
same,Hydrolysis of CAA (%),"[2]; pH 7.4 buffer, 20 min",3.1%
same,Hydrolysis of CAA (%),"[2]; pH 7.4 buffer, 40 min",10.9%
same,Hydrolysis of CAA (%),"[2]; pH 7.4 buffer, 60 min",12.1%
same,Hydrolysis of CAA (%),"[2]; pH 7.4 buffer, 120 min",13.1%
same,Hydrolysis of CAA (%),"[2]; pH 7.4 buffer, 240 min",14.3%
same,Relative MDA levels,"EJ cells [3]; pH=6.5, replicate #1",4.36
same,Relative MDA levels,"EJ cells [3]; pH=6.5, replicate #2",4.44
same,Relative MDA levels,"EJ cells [3]; pH=6.5, replicate #3",4.68
same,Relative MDA levels,"EJ cells [3]; pH=7.4, replicate #1",1.72
same,Relative MDA levels,"EJ cells [3]; pH=7.4, replicate #2",1.84
same,Relative MDA levels,"EJ cells [3]; pH=7.4, replicate #3",2.24
same,I338/I335 (pyrene),[4]; conjugate 0.97656 μM,0.974
same,I338/I335 (pyrene),[4]; conjugate 1.95313 μM,0.9716
same,I338/I335 (pyrene),[4]; conjugate 3.90625 μM,0.9744
same,I338/I335 (pyrene),[4]; conjugate 7.8125 μM,0.9774
same,I338/I335 (pyrene),[4]; conjugate 15.625 μM,0.9762
same,I338/I335 (pyrene),[4]; conjugate 31.25 μM,0.9729
same,I338/I335 (pyrene),[4]; conjugate 62.5 μM,0.9783
same,I338/I335 (pyrene),[4]; conjugate 125 μM,0.9903
same,I338/I335 (pyrene),[4]; conjugate 250 μM,1.02
same,I338/I335 (pyrene),[4]; conjugate 500 μM,1.0656
same,I338/I335 (pyrene),[4]; conjugate 1000 μM,1.12
same,critical aggregation concentration (CAC),[4],149.5 µM
same,ROS levels of tumor tissues,EJ tumor tissues,elevation
same,cellular uptake (CLSM) at pH 6.5,EJ cells [5]; pH 6.5,obvious fluorescence signal was observed in the cytoplasm
same,cellular uptake (CLSM) at pH 7.4,EJ cells [5]; pH 7.4,barely detected
same,intracellular GSH levels,"EJ cells [6]; EJ cells, pH 6.5, 40 μM, 8 h",substantial reduction of GSH levels
same,Relative GSH levels,"EJ cells [6]; pH=6.5, replicate #1",0.188
same,Relative GSH levels,"EJ cells [6]; pH=6.5, replicate #2",0.178
same,Relative GSH levels,"EJ cells [6]; pH=6.5, replicate #3",0.129
same,Relative GSH levels,"EJ cells [6]; pH=7.4, replicate #1",0.657
same,Relative GSH levels,"EJ cells [6]; pH=7.4, replicate #2",0.628
same,Relative GSH levels,"EJ cells [6]; pH=7.4, replicate #3",0.54
FeTCPP-LKLKLKGACNWLPLYPCPV (disulfide) [Gi-F],turnover frequency (TOF),[7],0.022 s⁻¹
same,I338/I335 (pyrene),[4]; conjugate 0.97656 μM,0.9792
same,I338/I335 (pyrene),[4]; conjugate 1.95313 μM,0.979
same,I338/I335 (pyrene),[4]; conjugate 3.90625 μM,0.9785
same,I338/I335 (pyrene),[4]; conjugate 7.8125 μM,0.9903
same,I338/I335 (pyrene),[4]; conjugate 15.625 μM,1.011
same,I338/I335 (pyrene),[4]; conjugate 31.25 μM,1.031
same,I338/I335 (pyrene),[4]; conjugate 62.5 μM,1.099
same,I338/I335 (pyrene),[4]; conjugate 125 μM,1.141
same,I338/I335 (pyrene),[4]; conjugate 250 μM,1.203
same,I338/I335 (pyrene),[4]; conjugate 500 μM,1.248
same,I338/I335 (pyrene),[4]; conjugate 1000 μM,1.254
same,critical aggregation concentration (CAC),[4],13.8 µM
"FeTCPP-LKLKLK(SA)GACNWLPLYPCPV (disulfide) [Gi-F-SA, control conjugate decorated with non-sensitive succinic anhydride (SA) moieties]",Hydrolysis of SA (%),"[2]; pH 6.5, 0 min",0%
same,Hydrolysis of SA (%),"[2]; pH 6.5, 20 min",1.1%
same,Hydrolysis of SA (%),"[2]; pH 6.5, 40 min",1.9%
same,Hydrolysis of SA (%),"[2]; pH 6.5, 60 min",2.1%
same,Hydrolysis of SA (%),"[2]; pH 6.5, 120 min",2.1%
same,Hydrolysis of SA (%),"[2]; pH 6.5, 240 min",2.3%
same,hydrolysis at pH 6.5 and 7.4,"[2]; pH 6.5 and 7.4, HPLC, Supplementary Fig. 11",little hydrolysis
same,Hydrolysis of SA (%),"[2]; pH 7.4, 0 min",0%
same,Hydrolysis of SA (%),"[2]; pH 7.4, 20 min",1%
same,Hydrolysis of SA (%),"[2]; pH 7.4, 40 min",1.2%
same,Hydrolysis of SA (%),"[2]; pH 7.4, 60 min",1.6%
same,Hydrolysis of SA (%),"[2]; pH 7.4, 120 min",1.9%
same,Hydrolysis of SA (%),"[2]; pH 7.4, 240 min",2.4%
same,Relative MDA levels,"EJ cells [3]; pH=7.4, replicate #1",2.76
same,Relative MDA levels,"EJ cells [3]; pH=7.4, replicate #2",2.24
same,Relative MDA levels,"EJ cells [3]; pH=7.4, replicate #3",2
same,Relative GSH levels,"EJ cells [6]; pH=7.4, replicate #1",0.589
same,Relative GSH levels,"EJ cells [6]; pH=7.4, replicate #2",0.628
same,Relative GSH levels,"EJ cells [6]; pH=7.4, replicate #3",0.53

# Reference: paper PMC10784468 (Nature Communications, 2024)
